Source: US20230061973A1 (LARIMAR THERAPEUTICS, published 2023)
Numbering of substitutions follows the chain as printed.

Target: T1, exemplary TAT frataxin fusion molecule (HIV-1, UniProt Q16595 1-210)
T1 construct: in the bridging assays biotinylated and sulfotagged forms were used; also called TAT-FXN fusion molecule; TAT FXN fusion molecule
T1 sequence: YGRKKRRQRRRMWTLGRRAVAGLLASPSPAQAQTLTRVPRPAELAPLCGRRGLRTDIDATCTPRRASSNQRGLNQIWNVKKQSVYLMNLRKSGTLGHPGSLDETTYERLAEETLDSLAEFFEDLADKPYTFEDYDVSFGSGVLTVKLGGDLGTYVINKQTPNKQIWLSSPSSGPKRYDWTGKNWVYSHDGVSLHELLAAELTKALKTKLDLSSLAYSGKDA
Experiment: PK sandwich ELISA in human plasma, antibody as capture, HRP anti-frataxin mAb detection

B1: antibody 12-8 (antibody, V domains shown)
VH: QSLEESGGDLVKPGASLTLTCTASGFSFSSGYWICWVRQAPGKGLEWIACIYTGDGDTSYASWAKGRFTISKTSSTTVTLQMTSLTVADTAIYFCARDTSGTFYYNLWGPGTLVAVSS
VL: AAVLTQTPSSVSAAVGGTVTISCQSSESVYKTNYLSWFQKKPGQPPKLLIYDASTLASGVPSRFSGSGSGTQFTLTISDLECDDAATYYCAGGYSDDINAFGGGTEVEIK
notes: Rabbit monoclonal
Mean OD at plasma conc. 0.400 ng/mL: 0.07 OD
Mean OD at plasma conc. 0.800 ng/mL: 0.087 OD
Mean OD at plasma conc. 1.60 ng/mL: 0.129 OD
Mean OD at plasma conc. 3.20 ng/mL: 0.225 OD
Mean OD at plasma conc. 6.40 ng/mL: 0.409 OD
Mean OD at plasma conc. 12.8 ng/mL: 0.75 OD
Mean OD at plasma conc. 25.6 ng/mL: 1.45 OD
Mean OD at plasma conc. 51.2 ng/mL: 2.67 OD
S/N at plasma conc. 0.400 ng/mL: 1.5
S/N at plasma conc. 0.800 ng/mL: 1.9
S/N at plasma conc. 1.60 ng/mL: 2.7
S/N at plasma conc. 3.20 ng/mL: 4.8
S/N at plasma conc. 6.40 ng/mL: 8.7
S/N at plasma conc. 12.8 ng/mL: 16
S/N at plasma conc. 25.6 ng/mL: 30.9
S/N at plasma conc. 51.2 ng/mL: 56.9

B2: antibody 10-4 (antibody, V domains shown)
VH: B1 VH
VL: DVVMTQTPSPVSAPVGGTVTINCQASQNIYSNLAWYQQKPGQPPKLLIYGASTLASGVSSRFKGSRSGTEFTLTISDLECADAATYYCQSYVYSSSTADTFGGGTKVVVE
notes: Rabbit monoclonal
Mean OD at plasma conc. 0.400 ng/mL: 0.076 OD
Mean OD at plasma conc. 0.800 ng/mL: 0.092 OD
Mean OD at plasma conc. 1.60 ng/mL: 0.14 OD
Mean OD at plasma conc. 3.20 ng/mL: 0.229 OD
Mean OD at plasma conc. 6.40 ng/mL: 0.411 OD
Mean OD at plasma conc. 12.8 ng/mL: 0.757 OD
Mean OD at plasma conc. 25.6 ng/mL: 1.41 OD
Mean OD at plasma conc. 51.2 ng/mL: 2.7 OD
S/N at plasma conc. 0.400 ng/mL: 1.4
S/N at plasma conc. 0.800 ng/mL: 1.6
S/N at plasma conc. 1.60 ng/mL: 2.5
S/N at plasma conc. 3.20 ng/mL: 4.1
S/N at plasma conc. 6.40 ng/mL: 7.3
S/N at plasma conc. 12.8 ng/mL: 13.5
S/N at plasma conc. 25.6 ng/mL: 25.2
S/N at plasma conc. 51.2 ng/mL: 48.3

B3: antibody 10-5 (antibody, V domains shown)
VH: B1 VH
VL: B2 VL
notes: Rabbit monoclonal
Mean OD at plasma conc. 0.400 ng/mL: 0.071 OD
Mean OD at plasma conc. 0.800 ng/mL: 0.09 OD
Mean OD at plasma conc. 1.60 ng/mL: 0.135 OD
Mean OD at plasma conc. 3.20 ng/mL: 0.23 OD
Mean OD at plasma conc. 6.40 ng/mL: 0.447 OD
Mean OD at plasma conc. 12.8 ng/mL: 0.819 OD
Mean OD at plasma conc. 25.6 ng/mL: 1.53 OD
Mean OD at plasma conc. 51.2 ng/mL: 2.86 OD
S/N at plasma conc. 0.400 ng/mL: 1.5
S/N at plasma conc. 0.800 ng/mL: 1.9
S/N at plasma conc. 1.60 ng/mL: 2.9
S/N at plasma conc. 3.20 ng/mL: 4.9
S/N at plasma conc. 6.40 ng/mL: 9.5
S/N at plasma conc. 12.8 ng/mL: 17.4
S/N at plasma conc. 25.6 ng/mL: 32.5
S/N at plasma conc. 51.2 ng/mL: 60.8

B4: antibody 10-12 (antibody, V domains shown)
VH: B1 VH
VL: B1 VL with A1E, A2L, P8A, E108V, I109V
notes: Rabbit monoclonal
Mean OD at plasma conc. 0.400 ng/mL: 0.073 OD
Mean OD at plasma conc. 0.800 ng/mL: 0.092 OD
Mean OD at plasma conc. 1.60 ng/mL: 0.136 OD
Mean OD at plasma conc. 3.20 ng/mL: 0.23 OD
Mean OD at plasma conc. 6.40 ng/mL: 0.417 OD
Mean OD at plasma conc. 12.8 ng/mL: 0.778 OD
Mean OD at plasma conc. 25.6 ng/mL: 1.4 OD
Mean OD at plasma conc. 51.2 ng/mL: 2.7 OD
S/N at plasma conc. 0.400 ng/mL: 1.6
S/N at plasma conc. 0.800 ng/mL: 2
S/N at plasma conc. 1.60 ng/mL: 3
S/N at plasma conc. 3.20 ng/mL: 5.1
S/N at plasma conc. 6.40 ng/mL: 9.3
S/N at plasma conc. 12.8 ng/mL: 17.3
S/N at plasma conc. 25.6 ng/mL: 31.2
S/N at plasma conc. 51.2 ng/mL: 60

B5: antibody 10-1 (antibody, V domains shown)
VH: B1 VH
VL: B1 VL with A1E, A2L, P8A, E108V, I109V
notes: Rabbit monoclonal
Mean OD at plasma conc. 0.400 ng/mL: 0.07 OD
Mean OD at plasma conc. 0.800 ng/mL: 0.093 OD
Mean OD at plasma conc. 1.60 ng/mL: 0.14 OD
Mean OD at plasma conc. 3.20 ng/mL: 0.228 OD
Mean OD at plasma conc. 6.40 ng/mL: 0.43 OD
Mean OD at plasma conc. 25.6 ng/mL: 1.44 OD
Mean OD at plasma conc. 51.2 ng/mL: 2.66 OD
S/N at plasma conc. 0.400 ng/mL: 1.5
S/N at plasma conc. 0.800 ng/mL: 2
S/N at plasma conc. 1.60 ng/mL: 3
S/N at plasma conc. 3.20 ng/mL: 5
S/N at plasma conc. 6.40 ng/mL: 9.3
S/N at plasma conc. 12.8 ng/mL: 17.1
S/N at plasma conc. 25.6 ng/mL: 31.3
S/N at plasma conc. 51.2 ng/mL: 57.7
